From publication PMC9784857, “In Vitro Characterization of a Nuclear Receptor-like Domain of the Xylanase Regulator 1 from Trichoderma reesei” (Journal of Fungi, 2022)

Legend:
[1] = molecular target: T1, Xyr1 (Xylanase regulator 1) (Trichoderma reesei, UniProt G0RLE8); assay: far-UV circular dichroism, ligand-induced conformational change; format: binding; conditions: 250 nM protein, buffer A (50 mM Tris, 200 mM NaCl, 50 mM NaH2PO4, 10% glycerol) pH 7.5, 22 °C; sugar 40-1000 nM; no added DNA; proposed allosteric
T1 construct: full coding region, codon-optimised synthetic gene, C-terminal His6 tag (not reported cut), pET28a (pTS1), E. coli BL21(DE3)pLysS; 105 kDa; monomer and homodimer
From the text: far-UV circular dichroism, ligand-induced conformational change on Xyr1 (Xylanase regulator 1) | All three carbohydrates cause a change in the Xyr1 secondary structure

[2] = molecular target: T1, Xyr1 (Xylanase regulator 1); assay: as above; format: binding; conditions: 250 nM protein, buffer A (50 mM Tris, 200 mM NaCl, 50 mM NaH2PO4, 10% glycerol) pH 7.5, 22 °C, sugar 40-1000 nM, no added DNA, proposed allosteric
[3] = molecular target: Xylanase regulator 1 with the A824V mutation (Xyr1_(A824V)) (Trichoderma reesei) (UniProt G0RLE8); assay: native gel or EMSA; blue native PAGE (BN-PAGE), 200 nM of each protein, non-denaturing conditions; second dimension SDS-PAGE, identity confirmed by Western blot; also run with target DNA or carbohydrates as controls (Figure S1)
Xyr1A824V = molecular target: T2, Xyr1A824V (Trichoderma reesei, UniProt G0RLE8 1-920, A804V); assay: CD spectroscopy titration (222 nm); no carbohydrate; Engel fit, n = 2; Buffer A: 50 mM Tris, 200 mM NaCl, 50 mM NaH2PO4, 10% glycerol, pH 7.5, 22 °C; CD: 250 nM protein, DNA 0-900 nM; EMSA: 15 ng probe, 10 min, 0.2 µg/µL p(dIdC) plus unspecific duplex CKT067/CKT068; conditions: protein: recombinant; tags: C-terminal His6; chain copies: 2; blunt
T2 sequence: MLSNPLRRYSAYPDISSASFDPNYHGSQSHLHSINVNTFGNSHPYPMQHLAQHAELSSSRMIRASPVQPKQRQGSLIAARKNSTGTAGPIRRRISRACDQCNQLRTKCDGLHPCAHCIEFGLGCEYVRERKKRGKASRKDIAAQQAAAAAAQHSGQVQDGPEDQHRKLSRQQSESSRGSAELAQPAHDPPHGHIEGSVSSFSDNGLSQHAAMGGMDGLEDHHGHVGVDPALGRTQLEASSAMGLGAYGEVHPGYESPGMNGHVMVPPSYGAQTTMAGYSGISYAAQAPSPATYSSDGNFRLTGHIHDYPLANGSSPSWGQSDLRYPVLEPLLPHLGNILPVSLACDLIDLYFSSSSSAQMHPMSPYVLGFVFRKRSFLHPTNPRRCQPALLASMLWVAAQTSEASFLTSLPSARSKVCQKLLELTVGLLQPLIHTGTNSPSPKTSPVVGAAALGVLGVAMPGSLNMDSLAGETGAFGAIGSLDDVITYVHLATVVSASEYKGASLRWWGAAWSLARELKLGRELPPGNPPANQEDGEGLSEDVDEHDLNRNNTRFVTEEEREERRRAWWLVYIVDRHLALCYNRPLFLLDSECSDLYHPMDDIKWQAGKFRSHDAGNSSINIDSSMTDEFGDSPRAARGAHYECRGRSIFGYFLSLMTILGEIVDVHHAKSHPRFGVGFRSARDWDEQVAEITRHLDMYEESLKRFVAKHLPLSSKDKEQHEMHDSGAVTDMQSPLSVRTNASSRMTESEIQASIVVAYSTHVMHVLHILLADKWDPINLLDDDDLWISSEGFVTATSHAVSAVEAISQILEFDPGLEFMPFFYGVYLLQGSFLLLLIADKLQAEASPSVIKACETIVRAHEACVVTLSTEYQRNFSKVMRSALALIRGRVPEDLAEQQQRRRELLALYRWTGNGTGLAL

[4] = molecular target: T3, Xyr1 (Xylanase regulator 1) (Trichoderma reesei, UniProt G0RLE8 1-920); assay: as above; conditions: protein: recombinant; tags: C-terminal His6; chain copies: 2; blunt
T3 sequence: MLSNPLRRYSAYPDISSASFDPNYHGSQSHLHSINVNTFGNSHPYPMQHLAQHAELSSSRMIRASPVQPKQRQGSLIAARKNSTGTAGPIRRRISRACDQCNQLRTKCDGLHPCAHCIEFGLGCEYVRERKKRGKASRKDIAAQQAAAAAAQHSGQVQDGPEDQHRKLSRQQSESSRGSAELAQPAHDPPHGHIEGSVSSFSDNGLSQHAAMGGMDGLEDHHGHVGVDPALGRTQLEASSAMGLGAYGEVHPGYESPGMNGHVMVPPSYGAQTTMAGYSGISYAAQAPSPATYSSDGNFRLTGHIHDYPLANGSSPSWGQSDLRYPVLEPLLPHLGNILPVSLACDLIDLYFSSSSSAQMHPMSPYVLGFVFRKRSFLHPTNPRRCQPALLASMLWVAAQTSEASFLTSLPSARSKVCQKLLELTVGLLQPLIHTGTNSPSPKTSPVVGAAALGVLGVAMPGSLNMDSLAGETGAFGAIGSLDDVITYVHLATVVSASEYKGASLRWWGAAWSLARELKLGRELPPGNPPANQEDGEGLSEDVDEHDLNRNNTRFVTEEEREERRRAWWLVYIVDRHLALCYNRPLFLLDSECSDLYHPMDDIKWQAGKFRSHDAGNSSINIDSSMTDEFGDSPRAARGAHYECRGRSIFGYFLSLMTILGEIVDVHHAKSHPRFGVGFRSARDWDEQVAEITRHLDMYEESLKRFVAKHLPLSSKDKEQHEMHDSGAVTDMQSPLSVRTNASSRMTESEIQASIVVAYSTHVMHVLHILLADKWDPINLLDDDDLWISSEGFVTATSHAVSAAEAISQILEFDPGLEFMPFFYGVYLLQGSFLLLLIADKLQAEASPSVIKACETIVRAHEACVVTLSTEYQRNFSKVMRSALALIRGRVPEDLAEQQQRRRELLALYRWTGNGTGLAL

[5] = molecular target: the molecule itself; assay: native gel or EMSA; blue native PAGE (BN-PAGE), 200 nM of each protein, non-denaturing conditions; second dimension SDS-PAGE, identity confirmed by Western blot; also run with target DNA or carbohydrates as controls (Figure S1)

Molecule: O=P(O)(O)OC[C@H]1OC(O)[C@H](O)[C@@H](O)[C@@H]1O (stereo partly drawn) [D-glucose-6-phosphate]
- loss of α-helix structures [1]: 21%

Molecule: OC1OC[C@@H](O)[C@H](O)[C@H]1O (stereo partly drawn) [D-xylose]
- loss of α-helix structures (up to) [2]: 31%

Molecule: OC[C@H]1O[C@@H](O[C@H]2C(O)O[C@H](CO)[C@@H](O)[C@@H]2O)[C@H](O)[C@@H](O)[C@@H]1O (stereo partly shown) [sophorose]
- loss of α-helix structures (up to) ([2]; spectra not shown, stated highly similar to D-xylose): 31%

Molecule: Xylanase regulator 1 with the A824V mutation (Xyr1_(A824V)) (from UniProt G0RLE8 1-920)
- stoichiometry N [3]: 2

B1: xyn1 URR fragment (-430 to -396), Pxyn1f/Pxyn1r (dsDNA)
DNA 1: TTGGCAGGCTAAATGCGACATCTTAGCCGGATGCA
DNA 2: TGCATCCGGCTAAGATGTCGCATTTAGCCTGCCAA
- Kd (Xyr1A824V): 523 nM
- Kd [4]: 128 nM

B2: Xylanase regulator 1 (Xyr1), wild type (natural protein)
chain: MLSNPLRRYSAYPDISSASFDPNYHGSQSHLHSINVNTFGNSHPYPMQHLAQHAELSSSRMIRASPVQPKQRQGSLIAARKNSTGTAGPIRRRISRACDQCNQLRTKCDGLHPCAHCIEFGLGCEYVRERKKRGKASRKDIAAQQAAAAAAQHSGQVQDGPEDQHRKLSRQQSESSRGSAELAQPAHDPPHGHIEGSVSSFSDNGLSQHAAMGGMDGLEDHHGHVGVDPALGRTQLEASSAMGLGAYGEVHPGYESPGMNGHVMVPPSYGAQTTMAGYSGISYAAQAPSPATYSSDGNFRLTGHIHDYPLANGSSPSWGQSDLRYPVLEPLLPHLGNILPVSLACDLIDLYFSSSSSAQMHPMSPYVLGFVFRKRSFLHPTNPRRCQPALLASMLWVAAQTSEASFLTSLPSARSKVCQKLLELTVGLLQPLIHTGTNSPSPKTSPVVGAAALGVLGVAMPGSLNMDSLAGETGAFGAIGSLDDVITYVHLATVVSASEYKGASLRWWGAAWSLARELKLGRELPPGNPPANQEDGEGLSEDVDEHDLNRNNTRFVTEEEREERRRAWWLVYIVDRHLALCYNRPLFLLDSECSDLYHPMDDIKWQAGKFRSHDAGNSSINIDSSMTDEFGDSPRAARGAHYECRGRSIFGYFLSLMTILGEIVDVHHAKSHPRFGVGFRSARDWDEQVAEITRHLDMYEESLKRFVAKHLPLSSKDKEQHEMHDSGAVTDMQSPLSVRTNASSRMTESEIQASIVVAYSTHVMHVLHILLADKWDPINLLDDDDLWISSEGFVTATSHAVSAAEAISQILEFDPGLEFMPFFYGVYLLQGSFLLLLIADKLQAEASPSVIKACETIVRAHEACVVTLSTEYQRNFSKVMRSALALIRGRVPEDLAEQQQRRRELLALYRWTGNGTGLAL
- stoichiometry N [5]: 2
